Measured values reported in the nanobody polyreactivity screen of Harvey et al. (2022).

Experiment: yeast display, Sf9 membrane polyspecificity reagent, FACS + sequencing; frameworks hold sequencing errors
How it was run: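 Sorting gates, low and high (top ~1%), were placed on anti-HA fluorescence to track expression and on streptavidin fluorescence to track reagent binding. A clone's polyreactivity label is taken from the gate it came out of. The reagent was 10% biotinylated, detergent-solubilized Sf9 membrane, applied for 1 hour at 4 °C to galactose-induced yeast display cells.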

Row | Sequence | polyreactivity (PSR sort gate)
1 | QVQLVESGGGLVQAGGSLRLSCAASGFIFIYNAMGWYRHAPGKERELVATINWSGGDSTYYADSVKGRFTISRDKAKNTVSLQMNSLKPEDTSVYYCATLSWYQQAYDYWGQGTQVTVSS | low polyreactivity
2 | QVQLVESGGGLVQAGGSLRLSCAASGFIFIYNAMGWYRQAPGKERELVAAISRSGGSTYYADSVKGRFTISRDNAKNTVYLHMNSLKPEDTAVYYCNARPGSRYYGYRLYYYWGQGTQVTVSS | high polyreactivity
3 | QVQLVESGGGLVQAGGSLRLSCAASGFIFIYNAMGWYRQAPGKERELVAAITGSDGGTFYADSVKGRFTISRDNAKNTVYLQMNSLKPEDTAVYYCNADIVGFQWGYDYWGQGTQVTVSS | low polyreactivity
4 | QVQLVESGGGLVQAGGSLRLSCAASGFIFIYNAMGWYRQAPGKERELVAAITGSDGGTFYADSVKGRFTISRDNAKNTVYLQMNSLKPEDTAVYYCNADNGSRQSRDGYESWGQGTQVTVSS | low polyreactivity
5 | QVQLVESGGGLVQAGGSLRLSCAASGFIFKGYAKGWYRQAPGKERELVAAINTSGGSTYYAVSVKGRFTISRDNAKNTVYVQMNSLKPEDTAVYYCNVRNRSRPYLPFWPDDNWGQGTQVTVSS | high polyreactivity
6 | QVQLVESGGGLVQAGGSLRLSCAASGFIFKIYAMGWYRQAPGKERELVAAMSSGDNTNYADSVKGRFTISRDNAKNTVYLQMNSLKPEDTAVYYCAADWSPTAASDYWGQGTQVTVSS | high polyreactivity
7 | QVQLVESGGGLVQAGGSLRLSCAASGFIFKSNAMGWYRQAPGKERELVAAITRSGGRTYYADSVKGRFTISRDNAKNTVYLQMNSLKPEDTAVYYCNAKLYTGSFDYWGQGTQVTVSS | high polyreactivity
8 | QVQLVESGGGLVQAGGSLRLSCAASGFIFKSYAMGWYRQAPGKERELVAAISGRGGSTYYADSVKGRFTISRDNAKNTVYLQMNSLKPEDTAVYYCNVGPSTYYQYDYWGQGTQVTVSS | high polyreactivity
9 | QVQLVESGGGLVQAGGSLRLSCAASGFIFKVYAMGWYRQAPGKERELVDAISRSGGSTYYADSVKGRFTISRDHAKNTVYLQMKSLKPEDTAVYYCAADYDVTGDSDYWGQGTQVTVSS | low polyreactivity
10 | QVQLVESGGGLVQAGGSLRLSCAASGFIFKWNAMGWYRPAPGKERELVAAISWHGGSTNYADSVKGRFTISRDNAKNTVYLQMNSLKQEDTAVYYCAKQQSPYYPSTLDYWGQGTQVTVSS | high polyreactivity
11 | QVQLVESGGGLVQAGGSLRLSCAASGFIFKYYAMGCYRQAPGKERELVAVISRSGGGTYYADSVKGRYTISRDHAKNTVYLQMNSLKTEDTAVYYCAAERSSGFDYWGQGTQVTVSS | high polyreactivity
12 | QVQLVESGGGLVQAGGSLRLSCAASGFIFLAYTMGWYRPAPGKERELVAAISTSGGSTYYADSVKGRFTISRDNAKNTVYLQMNILKPEDTAVYYCAARYRWGRYDYWGQGTQVTVSS | high polyreactivity
13 | QVQLVESGGGLVQAGGSLRLSCAASGFIFLDYAMGWYRQAPGKERELVAAISRSGGSTYYADSVKGRFTISRDYAKNTVYLQMNSLKPEDTAVYYCAAAFYGGGTWDSYWGQGTQVTVSS | high polyreactivity
14 | QVQLVESGGGLVQAGGSLRLSCAASGFIFLENDMGCYRQAPGKERELVASINSGSDTNYADSVKGRFTISRDNAKNTVYLQMNSLKPEDTAVYYCNASYNGVPARYDYWGQGTQVTVSS | low polyreactivity
15 | QVQLVESGGGLVQAGGSLRLSCAASGFIFLEYAMGWYRQAPGKERELVAAISARTGSTYYADSVKGRFTISRDNEKNTVYLLMNSLIPEDTAVYYSNKLTWRGEVDYWGHGTQVTVSS | high polyreactivity
16 | QVQLVESGGGLVQAGGSLRLSCAASGFIFLGKAMGWYRQAPAKERELVAAISSGGSTYADSVKGRFTISSDNAKNTVYLQMYSLKPEDTAVYYFAVDRAFRAQNYHEYYYWGQGTQVTVSS | low polyreactivity
17 | QVQLVESGGGLVQAGGSLRLSCAASGFIFLGYAMGWYRQAPGKERELVAAISSDSDTNYADSVKGRFTISRDNAKNTVYLQMNSLKPEDTAVYYCNADIDSYREMDYWGQGTQVTVSS | low polyreactivity
18 | QVQLVESGGGLVQAGGSLRLSCAASGFIFLGYGMGWYRQAPGKEREFVAGISWSGGSTYYADSVKGRFTISRDNAKNTVYLQMNSLKPEDTAVYYCNAVVFWGGGDYYWGQGTQVTVSS | low polyreactivity
19 | QVQLVESGGGLVQAGGSLRLSCAASGFIFLHYAMGWYRQAPGKERELVAAISSSGGRTYYADSVKGRFSISRDNAKNTVYLQMNSLKPEDTAVYYCAAEAYPWYVPYDYWGQGTQVTVSS | high polyreactivity
20 | QVQLVESGGGLVQAGGSLRLSCAASGFIFLSYAMGWYRQAPGKESELVAAITSNGGSTYYADSVKGRFTISRDNAKNTVYLQMNSLKPEDTAVYYCSADSGYGPYYYWGQGTQVTVSS | high polyreactivity
21 | QVQLVESGGGLVQAGGSLRLSCAASGFIFLYYAMGWNTQSPGKERELVADISRGADTKYADSVKGRFTISRDNAKNTVYLQMNSLKPEDTAVYYCATDITTFWFPYPGVELGYWGQGSQVTVSS | low polyreactivity
22 | QVQLVESGGGLVQAGGSLRLSCAASGFIFNFYAMGWYRQAPGKERELVAAISRSGGRTYYADSVKGRFTISRDNAKNTVYLQMNSLKPEDTAVYYCAAVTKSLYGYDYWGQGTQVTVSS | low polyreactivity

Row | Sequence | polyreactivity (PSR sort gate)
23 | QVQLVESGGGLVQAGGSLRLSCAASGFIFNGNVMGWYRQAPGKERELVAAITVSGGSTRYADSVKGRFTISRDNAKNTVYLQMNSLKPEDTAVYYCAARTRYLSYGWIHEYYYWGQGTQVTVSS | high polyreactivity
24 | QVQLVESGGGLVQAGGSLRLSCAASGFIFNHNAMGWYRQAPGKERELVAAISSGGRTYYADSVKGRFTISRDNAKNTVYLQMNSLKPEDTAVYYCAKDTKYSSQYGKYGYWGQGTQVTVSS | low polyreactivity
25 | QVQLVESGGGLVQAGGSLRLSCAASGFIFNHYAMGWYRQAPGKEREFVAAISWSGGSTYYADSVKGRFTISRDNAKNTVYLKMNSLKPEDTAVYYCAASYNGLWHGDYNYWGQGTQVTVSS | low polyreactivity
26 | QVQLVESGGGLVQAGGSLRLSCAASGFIFNKYAMGWYRQAPGKERQLVATIRRDGSTNYADSVKGRFTISRDNAKNTVYLQMNSLKPEDTAVYYCAVRPYYWSRDYYWGQGTQVTVSS | high polyreactivity
27 | QVQLVESGGGLVQAGGSLRLSCAASGFIFNNYAMGWYRQAPGKERELVAAITWSGGGTYYADSVKGRFTISRDNAKNTVYLQMTSLKAEDTAVYYCAVYYPAYRDEYWGQGTQVTVSS | high polyreactivity
28 | QVQLVESGGGLVQAGGSLRLSCAASGFIFNQYAMGWYRQAPGKERELVAAIRGSGGRTYYADSVKGRFTISRDNAKNTVYFQMNSLKPEDTAVYYCAKQRFGYRRSPGDYWGQGTQVTVSS | high polyreactivity
29 | QVQLVESGGGLVQAGGSLRLSCAASGFIFNRNAMGWYRQAPGKERELVAGINSGGTTKYADSVKGRFTISRDNAKNTVYLQMISLIPEDTAVYYCAKPLNYRYYVGYPLDYWGQGTQVTVSS | low polyreactivity
30 | QVQLVESGGGLVQAGGSLRLSCAASGFIFNRYAMGWYRQAPGKERELVAAITASGGSTYYADSVKGRFTISRDNAKNTVYLQMNSLKQEDTAVYYCAARAWLYSRRYGYWGQGTQVTVSS | high polyreactivity
31 | QVQLVESGGGLVQAGGSLRLSCAASGFIFNRYTMGWYRQAPGKERELVAAITGRGGSTYYADSVKGRFSISRDNAKNTVYLQMNSLKPEDTAVYYCAAAPAYRYASYTYGYDSWGQGTQVTVSS | high polyreactivity
32 | QVQLVESGGGLVQAGGSLRLSCAASGFIFPFNAMGWYRQAPGKERELVAAITSGGSTYYADSVKGRFTISRDNAKNTVYLQMNSLKPEDTAVYYCAKSWDRIGIWYRLEYWGQGTQVTVSS | low polyreactivity
33 | QVQLVESGGGLVQAGGSLRLSCAASGFIFPGNAMGWYRQAPGKEREFVAVISGSGGSTYYADSVKGRFTISRDNAKNTVYLQMNSLKPEDTAVYYCAAVYRDKSQRADYDYWGQGTQVTVSS | high polyreactivity
34 | QVQLVESGGGLVQAGGSLRLSCAASGFIFPGNARAWYRQAPGKERELVAAISNSGSRTYYADSVKGRFTISRDNAKNTVYLQMNSLKPEDTAVYYCNADVPNRGWPYDYWGQGTQVTVSS | low polyreactivity
35 | QVQLVESGGGLVQAGGSLRLSCAASGFIFPLYAMGWYRKAPGKERELVAAITWRGDTTSYADSVKGRFTISRDNAKNTVYLQMNSLKPEDTAVYYCAAEFYDWWYYGGGEYWGQGTQVTVSS | high polyreactivity
36 | QVQLVESGGGLVQAGGSLRLSCAASGFIFPLYTMGWYRQAPGKERELVAANSVTGGSTYYADSVKGRFTISRDNAKNTVYLQMNSLKPEETAVYYCNAYLFFLNRVWSFDYWGQGTQVTVSW | high polyreactivity
37 | QVQLVESGGGLVQAGGSLRLSCAASGFIFPQNAMGWYRQAPGKERELVAAIRWSGGRTYYADSVKGRFTISRDNAKNTVYLQMNSLNPEDTAVYYCAADVRQRGIYGPGPHYYWGQGTQVTVSS | high polyreactivity
38 | QVQLVESGGGLVQAGGSLRLSCAASGFIFPQYAKGWYRQAPGKERELVAAISTGGGSTYYADSVKGRFTISRDNAKNTVYLQMNSLKPEDTAVYYCNARPKYDSGHYYWGQGTQVTVSS | high polyreactivity
39 | QVQLVESGGGLVQAGGSLRLSCAASGFIFPRYAMGWYRQAPGKERELVAGITSRGTGTYYADSVKGRFTISRDNAKNTVYLQMNSLKPEDTAVYYCARLSTKPLPYDYWGLGTQVTVSS | high polyreactivity
40 | QVQLVESGGGLVQAGGSLRLSCAASGFIFPSNVMGWYRQATGKERELVAAISTRGGRTYYADSVKGRFTISRDNAKNTVYLQMNSLKPEDTAVYYCAASISRQGGVGYWGQGTQVTVSS | high polyreactivity
41 | QVQLVESGGGLVQAGGSLRLSCAASGFIFPSYVMGWYRQAPWKERELVATISHSGGSTYYADSVKGRFTLSRDNAKNTVYLQMNSLKPEDTAVYYCATRRRGPYSPYSPYDYWGQGTQVTVSS | high polyreactivity
42 | QVQLVESGGGLVQAGGSLRLSCAASGFIFPVYTMGWYRQAPGKERELVAAITQIGGSTHYADSVTGRFTISRDNAKNTVYLQMNSLKPEDTAVYYCNAVPSYGTEYDYWGQGTQVTVSS | low polyreactivity
43 | QVQLVESGGGLVQAGGSLRLSCAASGFIFPYYAMGWYRQAPGQERELVAAITGGGSRTYYADSVKGRFTISRDNAKNTVYLQMNSLKPEDTAVYYCAKGLSTGRAYRGYDYWGQGTQVTVSS | high polyreactivity
